Laboratory results as given in IntAct's records for PubMed 17070842.

B1: Tyrosine-protein phosphatase non-receptor type substrate 1 (Homo sapiens), P78324-4 (parent)
chain: MEPAGPAPGRLGPLLCLLLAASCAWSGVAGEEELQVIQPDKSVLVAAGETATLRCTATSLIPVGPIQWFRGAGPGRELIYNQKEGHFPRVTTVSDLTKRNNMDFSIRIGNITPADAGTYYCVKFRKGSPDVEFKSGAGTELSVRAKPSAPVVSGPAARATPQHTVSFTCESHGFSPRDITLKWFKNGNELSDFQTNVDPVGESVSYSIHSTAKVVLTREDVHSQVICEVAHVTLQGDPLRGTANLSETIRVPPTLEVTQQPVRAENQVNVTCQVRKFYPQRLQLTWLENGNVSRTETASTVTENKDGTYNWMSWLLVNVSAHRDDVKLTCQVEHDGQPAVSKSHDLKVSAHPKEQGSNTAAENTGSNERNIYIVVGVVCTLLVALLMAALYLVRIRQKKAQGSTSSTRLHEPEKNAREITQDTNDITYADLNLPKGKKPAPQAAEPNNHTEYASIQTSPQPASEDTLTYADLDMVHLNRTPKQPAPKPEPSFSEYASVQVPRK
B2: Signal-regulatory protein beta-1 (Homo sapiens), O00241 (parent)
chain: MPVPASWPHLPSPFLLMTLLLGRLTGVAGEDELQVIQPEKSVSVAAGESATLRCAMTSLIPVGPIMWFRGAGAGRELIYNQKEGHFPRVTTVSELTKRNNLDFSISISNITPADAGTYYCVKFRKGSPDDVEFKSGAGTELSVRAKPSAPVVSGPAVRATPEHTVSFTCESHGFSPRDITLKWFKNGNELSDFQTNVDPAGDSVSYSIHSTARVVLTRGDVHSQVICEIAHITLQGDPLRGTANLSEAIRVPPTLEVTQQPMRAENQANVTCQVSNFYPRGLQLTWLENGNVSRTETASTLIENKDGTYNWMSWLLVNTCAHRDDVVLTCQVEHDGQQAVSKSYALEISAHQKEHGSDITHEAALAPTAPLLVALLLGPKLLLVVGVSAIYICWKQKA

Variants of: B1
Details: with cd47_human CD47, Q08722
Target sequence in this assay (Q08722 whole entry): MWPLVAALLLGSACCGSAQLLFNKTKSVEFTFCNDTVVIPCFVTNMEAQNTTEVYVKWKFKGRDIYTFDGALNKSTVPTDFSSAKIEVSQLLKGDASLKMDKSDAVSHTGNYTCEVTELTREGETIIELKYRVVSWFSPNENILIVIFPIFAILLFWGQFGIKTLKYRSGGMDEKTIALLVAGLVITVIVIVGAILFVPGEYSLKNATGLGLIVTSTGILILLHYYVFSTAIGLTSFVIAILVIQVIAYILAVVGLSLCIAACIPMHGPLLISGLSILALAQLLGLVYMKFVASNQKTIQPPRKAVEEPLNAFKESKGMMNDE

Row | Variant | effect of a mutation on the interaction
1 | A57M | disrupting interaction strength

Variants of: B2
Details: with cd47_human CD47, Q08722
Target sequence in this assay (Q08722 whole entry): as above

Row | Variant | effect of a mutation on the interaction
2 | M56V;M66Q;L101M | causing an interaction
3 | M56V;M66Q | causing an interaction
4 | M56V;M66Q;A73P | causing an interaction
